Target: T1, His6-YidC (E. coli, UniProt P25714 1-548)
T1 sequence (looked up): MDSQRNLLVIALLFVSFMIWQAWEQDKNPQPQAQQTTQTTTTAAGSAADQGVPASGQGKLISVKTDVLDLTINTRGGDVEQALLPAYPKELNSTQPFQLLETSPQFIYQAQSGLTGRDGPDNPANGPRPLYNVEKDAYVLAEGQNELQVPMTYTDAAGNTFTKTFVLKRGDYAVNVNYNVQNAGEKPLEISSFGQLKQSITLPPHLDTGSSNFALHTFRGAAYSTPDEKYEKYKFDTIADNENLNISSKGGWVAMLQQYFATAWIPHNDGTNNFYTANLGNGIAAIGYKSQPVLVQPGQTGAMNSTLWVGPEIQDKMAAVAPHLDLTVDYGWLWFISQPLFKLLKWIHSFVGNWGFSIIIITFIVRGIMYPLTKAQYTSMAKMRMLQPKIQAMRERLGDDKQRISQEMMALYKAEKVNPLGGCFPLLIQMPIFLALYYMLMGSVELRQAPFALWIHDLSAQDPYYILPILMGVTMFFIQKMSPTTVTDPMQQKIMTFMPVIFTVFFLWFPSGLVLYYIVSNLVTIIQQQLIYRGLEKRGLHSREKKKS
Assay: native gel or EMSA

B1: YibN-His6 (natural protein, E. coli, UniProt P0AG27 1-143, looked up)
chain: MQEIMQFVGRHPILSIAWIALLVAVLVTTFKSLTSKVKVITRGEATRLINKEDAVVVDLRQRDDFRKGHIAGSINLLPSEIKANNVGELEKHKDKPVIVVDGSGMQCQEPANALTKAGFAQVFVLKEGVAGWAGENLPLVRGK
  binding result: binds
